According to PMC4687643, “SH3 Domains Differentially Stimulate Distinct Dynamin I Assembly Modes and G Domain Activity” (PLoS ONE, 2015):

How the values were obtained:
Experiment in all cases: cell-based or functional assay
[1] = target: T1, GST-sorting-nexin 9 (SNX9) SH3 domain (human, UniProt Q9Y5X1 1-62)
[2] = target: T2, GST-endophilin I SH3 domain (mouse, UniProt Q62420 290-349)
[3] = target: GST-intersectin I SH3E domain (Xenopus laevis)
GST-cortactin SH3 domain [4] = target: T3, GST-cortactin SH3 domain (mouse, UniProt Q60598 488-546)
T3 sequence (Q60598 488-546): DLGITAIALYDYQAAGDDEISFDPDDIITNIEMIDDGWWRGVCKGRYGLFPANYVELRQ

[5] = target: T4, GST-Actin binding protein 1 (Abp1) SH3 domain (mouse, UniProt Q62418 377-436)
T4 sequence (Q62418 377-436): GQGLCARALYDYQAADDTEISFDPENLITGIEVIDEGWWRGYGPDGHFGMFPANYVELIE

[6] = target: T5, GST-syndapin I SH3 domain (mouse, UniProt Q61644 382-441)
T5 sequence (Q61644 382-441): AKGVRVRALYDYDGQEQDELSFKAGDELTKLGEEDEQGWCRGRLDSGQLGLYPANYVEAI

[7] = target: T6, GST-Formin Binding Protein 17 (FBP17) SH3 domain (human, UniProt Q96RU3 550-611)
T6 sequence (looked up): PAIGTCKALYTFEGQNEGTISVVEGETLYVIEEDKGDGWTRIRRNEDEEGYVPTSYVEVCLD

[8] = target: T7, GST-amphiphysin I SH3 domain (human, UniProt P49418 622-695)
T7 sequence (looked up): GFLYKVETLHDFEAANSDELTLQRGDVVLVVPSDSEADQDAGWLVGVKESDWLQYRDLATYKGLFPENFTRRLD

[9] = target: GST-intersectin I SH3A domain (Xenopus laevis)
GST-p85 SH3 domain [10] = target: T8, GST-p85 SH3 domain (bovine, UniProt P23727 3-79)
[11] = target: T9, GST-Cdc42 interacting protein 4 (CIP4) SH3 domain (human, UniProt Q15642 540-601)
T9 sequence (looked up): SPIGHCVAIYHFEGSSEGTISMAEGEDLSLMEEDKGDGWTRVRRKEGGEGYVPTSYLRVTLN

[12] = target: T10, GST-amphiphysin II SH3 domain (human, UniProt O00499 520-593)
T10 sequence (looked up): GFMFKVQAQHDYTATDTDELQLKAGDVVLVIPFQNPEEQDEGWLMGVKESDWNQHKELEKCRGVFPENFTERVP

[13] = target: GST-intersectin I SH3C domain (Xenopus laevis)
[14] = target: T1, GST-sorting-nexin 9 (SNX9) SH3 domain; remark: listed apart in the source
[15] = target: T2, GST-endophilin I SH3 domain; remark: listed apart in the source
[16] = target: GST-intersectin I SH3E domain (Xenopus laevis); remark: listed apart in the source
GST-cortactin SH3 domain [17] = target: T3, GST-cortactin SH3 domain; remark: listed apart in the source
[18] = target: T4, GST-Actin binding protein 1 (Abp1) SH3 …; remark: listed apart in the source
[19] = target: T5, GST-syndapin I SH3 domain; remark: listed apart in the source
[20] = target: T6, GST-Formin Binding Protein 17 (FBP17) …; remark: listed apart in the source
[21] = target: T7, GST-amphiphysin I SH3 domain; remark: listed apart in the source
[22] = target: GST-intersectin I SH3A domain (Xenopus laevis); remark: listed apart in the source
GST-p85 SH3 domain [23] = target: T8, GST-p85 SH3 domain; remark: listed apart in the source
[24] = target: T9, GST-Cdc42 interacting protein 4 (CIP4) …; remark: listed apart in the source
[25] = target: T10, GST-amphiphysin II SH3 domain; remark: listed apart in the source
[26] = target: GST-intersectin I SH3C domain (Xenopus laevis); remark: listed apart in the source

T2 sequence (Q62420 290-349): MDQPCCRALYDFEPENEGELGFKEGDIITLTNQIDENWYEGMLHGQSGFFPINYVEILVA
T1 sequence (Q9Y5X1 1-62): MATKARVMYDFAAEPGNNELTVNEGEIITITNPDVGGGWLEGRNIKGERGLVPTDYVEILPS

B1: endogenous sheep brain dynamin I (enzyme)
chain: MGNRGMEDLIPLVNRLQDAFSAIGQNADLDLPQIAVVGGQSAGKSSVLENFVGRDFLPRGSGIVTRRPLVLQLVNATTEYAEFLHCKGKKFTDFEEVRLEIEAETDRVTGTNKGISPVPINLRVYSPHVLNLTLVDLPGMTKVPVGDQPPDIEFQIRDMLMQFVTKENCLILAVSPANSDLANSDALKVAKEVDPQGQRTIGVITKLDLMDEGTDARDVLENKLLPLRRGYIGVVNRSQKDIDGKKDITAALAAERKFFLSHPSYRHLADRMGTPYLQKVLNQQLTNHIRDTLPGLRNKLQSQLLSIEKEVEEYKNFRPDDPARKTKALLQMVQQFAVDFEKRIEGSGDQIDTYELSGGARINRIFHERFPFELVKMEFDEKELRREISYAIKNIHGIRTGLFTPDLAFEATVKKQVQKLKEPSIKCVDMVVSELTATIRKCSEKLQQYPRLREEMERIVTTHIREREGRTKEQVMLLIDIELAYMNTNHEDFIGFANAQQRSNQMNKKKASGNQDEILVIRKGWLTINNIGIMKGGSKEYWFVLTAENLSWYKDDEEKEKKYMLSVDNLKLRDVEKGFMSSKHIFALFNTEQRNVYKDYRQLELACETQEEVDSWKASFLRAGVYPERVGDKEKASETEENGSDSFMHSMDPQLERQVETIRNLVDSYMAIVNKTVRDLMPKTIMHLMINNTKEFIFSELLANLYSCGDQNTLMEESAEQAQRRDEMLRMYHALKEALSIIGDINTTTVSTPMPPPVDDSWLQVQSVPTGRRSPTSSPTPQRRAPAVPPARPGSRGPAPGPPPAGSALGGAPPVPSRPGASPDPFGPPPQVPSRPNRAPPGVPSRSGQASPSRPESPRPPFDL
[1]
  dynamin GTPase activity stimulated by the GST-SH3 domain (ELIPA, 30 mM NaCl), fold change relative to no SH3: 5.12 fold change
[2]
  dynamin GTPase activity stimulated by the GST-SH3 domain (ELIPA, 30 mM NaCl), fold change relative to no SH3: 2.82 fold change
[3]
  dynamin GTPase activity stimulated by the GST-SH3 domain (ELIPA, 30 mM NaCl), fold change relative to no SH3: 1.83 fold change
GST-cortactin SH3 domain [4]
  dynamin GTPase activity stimulated by the GST-SH3 domain (ELIPA, 30 mM NaCl), fold change relative to no SH3: 5.49 fold change
[5]
  dynamin GTPase activity stimulated by the GST-SH3 domain (ELIPA, 30 mM NaCl), fold change relative to no SH3: 1.03 fold change
[6]
  dynamin GTPase activity stimulated by the GST-SH3 domain (ELIPA, 30 mM NaCl), fold change relative to no SH3: 5.9 fold change
[7]
  dynamin GTPase activity stimulated by the GST-SH3 domain (ELIPA, 30 mM NaCl), fold change relative to no SH3: 3.97 fold change
[8]
  dynamin GTPase activity stimulated by the GST-SH3 domain (ELIPA, 30 mM NaCl), fold change relative to no SH3: 5.32 fold change
[9]
  dynamin GTPase activity stimulated by the GST-SH3 domain (ELIPA, 30 mM NaCl), fold change relative to no SH3: 14.7 fold change
GST-p85 SH3 domain [10]
  dynamin GTPase activity stimulated by the GST-SH3 domain (ELIPA, 30 mM NaCl), fold change relative to no SH3: 2.24 fold change
[11]
  dynamin GTPase activity stimulated by the GST-SH3 domain (ELIPA, 30 mM NaCl), fold change relative to no SH3: 0.83 fold change
[12]
  dynamin GTPase activity stimulated by the GST-SH3 domain (ELIPA, 30 mM NaCl), fold change relative to no SH3: 1.09 fold change
[13]
  dynamin GTPase activity stimulated by the GST-SH3 domain (ELIPA, 30 mM NaCl), fold change relative to no SH3: 2.1 fold change
[14]
  rate of dynamin GTPase activity stimulated by the GST-SH3 domain (ELIPA, 30 mM NaCl, basal rate subtracted): 0.027 μmoles Pi/mg of dyn/min
[15]
  rate of dynamin GTPase activity stimulated by the GST-SH3 domain (ELIPA, 30 mM NaCl, basal rate subtracted): 0.012 μmoles Pi/mg of dyn/min
[16]
  rate of dynamin GTPase activity stimulated by the GST-SH3 domain (ELIPA, 30 mM NaCl, basal rate subtracted): 0.005 μmoles Pi/mg of dyn/min
GST-cortactin SH3 domain [17]
  rate of dynamin GTPase activity stimulated by the GST-SH3 domain (ELIPA, 30 mM NaCl, basal rate subtracted): 0.031 μmoles Pi/mg of dyn/min
[18]
  rate of dynamin GTPase activity stimulated by the GST-SH3 domain (ELIPA, 30 mM NaCl, basal rate subtracted): 0 μmoles Pi/mg of dyn/min
[19]
  rate of dynamin GTPase activity stimulated by the GST-SH3 domain (ELIPA, 30 mM NaCl, basal rate subtracted): 0.033 μmoles Pi/mg of dyn/min
[20]
  rate of dynamin GTPase activity stimulated by the GST-SH3 domain (ELIPA, 30 mM NaCl, basal rate subtracted): 0.016 μmoles Pi/mg of dyn/min
[21]
  rate of dynamin GTPase activity stimulated by the GST-SH3 domain (ELIPA, 30 mM NaCl, basal rate subtracted): 0.029 μmoles Pi/mg of dyn/min
[22]
  rate of dynamin GTPase activity stimulated by the GST-SH3 domain (ELIPA, 30 mM NaCl, basal rate subtracted): 0.101 μmoles Pi/mg of dyn/min
GST-p85 SH3 domain [23]
  rate of dynamin GTPase activity stimulated by the GST-SH3 domain (ELIPA, 30 mM NaCl, basal rate subtracted): 0.009 μmoles Pi/mg of dyn/min
[24]
  rate of dynamin GTPase activity stimulated by the GST-SH3 domain (ELIPA, 30 mM NaCl, basal rate subtracted): 0 μmoles Pi/mg of dyn/min
[25]
  rate of dynamin GTPase activity stimulated by the GST-SH3 domain (ELIPA, 30 mM NaCl, basal rate subtracted): 0.001 μmoles Pi/mg of dyn/min
[26]
  rate of dynamin GTPase activity stimulated by the GST-SH3 domain (ELIPA, 30 mM NaCl, basal rate subtracted): 0.008 μmoles Pi/mg of dyn/min
